Test results as given in article PMC9482650, “Quantitative fragmentomics allow affinity mapping of interactomes” (Nature Communications, 2022).

Experiments:
Experiment in all cases: holdup assay
Parameters in all cases: key: below the threshold = too weak to quantify, mostly under pKd 3.1 to 4
APBA2_1, Q99767 = target: T1, APBA2_1, Q99767
T1 sequence (Q99767 563-664, limits assumed, looked up): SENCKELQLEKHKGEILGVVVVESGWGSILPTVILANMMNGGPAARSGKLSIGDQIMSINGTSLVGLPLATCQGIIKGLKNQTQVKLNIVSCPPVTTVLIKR

APBA2_2, Q99767 = target: T2, APBA2_2, Q99767
T2 sequence (Q99767 654-744, limits assumed, looked up): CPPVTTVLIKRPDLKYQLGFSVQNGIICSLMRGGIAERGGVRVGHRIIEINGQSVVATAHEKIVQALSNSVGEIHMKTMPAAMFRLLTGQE

ARHGEF11, O15085 = target: T3, ARHGEF11, O15085
T3 sequence (O15085 42-136, limits assumed, looked up): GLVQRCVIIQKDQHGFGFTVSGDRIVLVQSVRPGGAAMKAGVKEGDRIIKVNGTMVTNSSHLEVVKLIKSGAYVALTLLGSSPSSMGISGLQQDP

CASK, O14936 = target: CASK, O14936
Sequence of CASK, O14936 (O14936 487-570): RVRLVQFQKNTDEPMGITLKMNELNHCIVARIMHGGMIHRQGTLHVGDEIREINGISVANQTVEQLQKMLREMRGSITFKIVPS

DFNB31_1, Q9P202 = target: T4, DFNB31_1, Q9P202
T4 sequence (Q9P202 135-233, limits assumed, looked up): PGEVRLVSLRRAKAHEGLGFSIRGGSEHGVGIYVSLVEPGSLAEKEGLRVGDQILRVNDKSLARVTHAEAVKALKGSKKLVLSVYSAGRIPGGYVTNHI

DLG1_3, Q12959 = target: DLG1_3, Q12959
Sequence of DLG1_3, Q12959 (Q12959 457-571): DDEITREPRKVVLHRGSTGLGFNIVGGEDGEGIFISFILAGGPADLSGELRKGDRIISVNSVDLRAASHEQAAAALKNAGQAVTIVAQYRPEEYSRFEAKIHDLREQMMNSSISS

DLG3_3, Q92796 = target: T5, DLG3_3, Q92796
T5 sequence (Q92796 374-475, limits assumed, looked up): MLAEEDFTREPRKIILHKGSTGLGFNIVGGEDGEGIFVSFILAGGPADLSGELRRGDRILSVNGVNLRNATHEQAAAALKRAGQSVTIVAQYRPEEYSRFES

DLG4_1, P78352 = target: DLG4_1, P78352
Sequence of DLG4_1, P78352 (P78352 62-152): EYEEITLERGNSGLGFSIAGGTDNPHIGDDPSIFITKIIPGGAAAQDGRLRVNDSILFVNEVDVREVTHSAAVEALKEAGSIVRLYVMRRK

GIPC2, Q8TF65 = target: GIPC2, Q8TF65
Sequence of GIPC2, Q8TF65 (Q8TF65 112-203): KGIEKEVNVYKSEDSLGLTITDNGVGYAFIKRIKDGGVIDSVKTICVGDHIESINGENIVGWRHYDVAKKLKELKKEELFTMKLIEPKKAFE

GORASP2, Q9H8Y8 = target: GORASP2, Q9H8Y8
GRID2IP_1, A4D2P6 = target: GRID2IP_1, A4D2P6
Sequence of GRID2IP_1, A4D2P6 (A4D2P6 1-87): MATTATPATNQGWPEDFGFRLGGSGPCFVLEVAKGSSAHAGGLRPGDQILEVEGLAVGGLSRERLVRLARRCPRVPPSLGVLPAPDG

GRIP1_2, Q9Y3R0 = target: T6, GRIP1_2, Q9Y3R0
T6 sequence (Q9Y3R0 145-248, limits assumed, looked up): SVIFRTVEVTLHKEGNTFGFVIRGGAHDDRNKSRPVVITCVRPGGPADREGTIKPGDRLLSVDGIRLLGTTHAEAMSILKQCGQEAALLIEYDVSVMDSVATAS

GRIP1_3, Q9Y3R0 = target: T7, GRIP1_3, Q9Y3R0
T7 sequence (Q9Y3R0 247-346, limits assumed, looked up): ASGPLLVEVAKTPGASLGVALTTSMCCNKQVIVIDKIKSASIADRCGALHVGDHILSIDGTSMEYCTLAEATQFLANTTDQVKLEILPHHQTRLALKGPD

GRIP1_7, Q9Y3R0 = target: T8, GRIP1_7, Q9Y3R0
T8 sequence (Q9Y3R0 999-1096, limits assumed, looked up): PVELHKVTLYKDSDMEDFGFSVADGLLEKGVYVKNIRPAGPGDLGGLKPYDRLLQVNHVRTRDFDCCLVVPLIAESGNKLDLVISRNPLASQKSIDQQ

IL16_4, Q14005 = target: IL16_4, Q14005
Sequence of IL16_4, Q14005 (Q14005 1229-1329): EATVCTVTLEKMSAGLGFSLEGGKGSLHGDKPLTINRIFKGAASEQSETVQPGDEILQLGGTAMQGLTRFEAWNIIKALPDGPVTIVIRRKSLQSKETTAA

LNX1_3, Q8TBB1 = target: LNX1_3, Q8TBB1
Sequence of LNX1_3, Q8TBB1 (Q8TBB1 500-596): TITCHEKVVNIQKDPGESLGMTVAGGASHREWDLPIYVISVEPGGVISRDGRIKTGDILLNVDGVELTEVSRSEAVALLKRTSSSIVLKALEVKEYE

LNX2_3, Q8N448 = target: T9, LNX2_3, Q8N448
T9 sequence (Q8N448 463-564, limits assumed, looked up): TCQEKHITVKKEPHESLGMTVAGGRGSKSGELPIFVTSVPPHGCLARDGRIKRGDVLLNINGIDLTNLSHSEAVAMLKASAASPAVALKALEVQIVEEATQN

MAST2, Q6P0Q8 = target: MAST2, Q6P0Q8
Sequence of MAST2, Q6P0Q8 (Q6P0Q8 1099-1202): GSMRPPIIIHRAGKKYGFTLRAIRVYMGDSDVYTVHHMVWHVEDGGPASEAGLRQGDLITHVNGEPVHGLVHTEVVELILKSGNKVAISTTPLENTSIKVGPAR

MPP2, Q14168 = target: T10, MPP2, Q14168
T10 sequence (Q14168 180-250, limits assumed, looked up): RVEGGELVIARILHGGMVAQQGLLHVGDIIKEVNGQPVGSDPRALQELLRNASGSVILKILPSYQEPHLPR

MPP6, Q9NZW5 = target: T11, MPP6, Q9NZW5
T11 sequence (Q9NZW5 125-219, limits assumed, looked up): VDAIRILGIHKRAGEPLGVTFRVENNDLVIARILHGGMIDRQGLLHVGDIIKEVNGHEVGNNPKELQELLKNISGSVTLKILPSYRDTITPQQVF

NHERF3_4, Q5T2W1 = target: T12, NHERF3_4, Q5T2W1
T12 sequence (Q5T2W1 373-468, limits assumed, looked up): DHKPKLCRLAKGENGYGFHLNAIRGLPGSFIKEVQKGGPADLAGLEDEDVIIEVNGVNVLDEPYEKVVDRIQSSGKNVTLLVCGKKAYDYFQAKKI

NOS1, P29475 = target: NOS1, P29475
Sequence of NOS1, P29475 (P29475 9-101): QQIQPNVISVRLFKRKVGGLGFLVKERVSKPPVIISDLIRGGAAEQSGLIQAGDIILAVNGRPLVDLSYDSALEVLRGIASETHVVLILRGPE

SNTB1, Q13884 = target: T13, SNTB1, Q13884
T13 sequence (Q13884 107-205, limits assumed, looked up): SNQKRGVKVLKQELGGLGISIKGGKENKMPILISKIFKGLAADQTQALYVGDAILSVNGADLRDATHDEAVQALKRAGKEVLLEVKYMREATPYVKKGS

TJP1_3, Q07157 = target: TJP1_3, Q07157
Sequence of TJP1_3, Q07157 (Q07157 416-512): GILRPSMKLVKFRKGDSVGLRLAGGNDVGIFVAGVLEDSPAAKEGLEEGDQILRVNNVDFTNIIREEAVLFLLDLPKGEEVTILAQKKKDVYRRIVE

[1] = plain residues with an end cap or a label only (N-terminal biotin on a linker: ado-ado)
[2] = plain residues with an end cap or a label only (N-terminal biotin on a linker: (peg)3)

Binder: LAHVKHKEQI [AQP3, Q92482]
- pKd (APBA2_1, Q99767; [1]): below the threshold
- pKd (APBA2_2, Q99767; [1]): below the threshold
- pKd (ARHGEF11, O15085; [1]): below the threshold
- pKd (CASK, O14936; [1]): below the threshold
- pKd (DFNB31_1, Q9P202; [1]): below the threshold
- pKd (DLG1_3, Q12959; [1]): below the threshold
- pKd (DLG3_3, Q92796; [1]): below the threshold
- pKd (DLG4_1, P78352; [1]): below the threshold
- pKd (GIPC2, Q8TF65; [1]): below the threshold
- pKd (GORASP2, Q9H8Y8; [1]): below the threshold
- pKd (GRID2IP_1, A4D2P6; [1]): below the threshold
- pKd (GRIP1_2, Q9Y3R0; [1]): below the threshold
- pKd (GRIP1_3, Q9Y3R0; [1]): below the threshold
- pKd (GRIP1_7, Q9Y3R0; [1]): below the threshold
- pKd (IL16_4, Q14005; [1]): below the threshold
- pKd (LNX1_3, Q8TBB1; [1]): below the threshold
- pKd (LNX2_3, Q8N448; [1]): below the threshold
- pKd (MAST2, Q6P0Q8; [1]): below the threshold
- pKd (MPP2, Q14168; [1]): below the threshold
- pKd (MPP6, Q9NZW5; [1]): below the threshold
- pKd (NHERF3_4, Q5T2W1; [1]): below the threshold
- pKd (NOS1, P29475; [1]): below the threshold
- pKd (SNTB1, Q13884; [1]): below the threshold
- pKd (TJP1_3, Q07157; [1]): below the threshold

Binder: RFQQRMQTHV [KIRREL1, Q96J84]
- pKd (APBA2_1, Q99767; [1]): below the threshold
- pKd (APBA2_2, Q99767; [1]): below the threshold
- pKd (ARHGEF11, O15085; [1]): 4.19
- pKd (CASK, O14936; [1]): below the threshold
- pKd (DFNB31_1, Q9P202; [1]): 3.52
- pKd (DLG1_3, Q12959; [1]): 3.68
- pKd (DLG3_3, Q92796; [1]): 3.94
- pKd (DLG4_1, P78352; [1]): 4.32
- pKd (GIPC2, Q8TF65; [1]): below the threshold
- pKd (GORASP2, Q9H8Y8; [1]): 4.12
- pKd (GRID2IP_1, A4D2P6; [1]): below the threshold
- pKd (GRIP1_2, Q9Y3R0; [1]): below the threshold
- pKd (GRIP1_3, Q9Y3R0; [1]): below the threshold
- pKd (GRIP1_7, Q9Y3R0; [1]): below the threshold
- pKd (IL16_4, Q14005; [1]): below the threshold
- pKd (LNX1_3, Q8TBB1; [1]): below the threshold
- pKd (LNX2_3, Q8N448; [1]): below the threshold
- pKd (MAST2, Q6P0Q8; [1]): 5.73
- pKd (MPP2, Q14168; [1]): below the threshold
- pKd (MPP6, Q9NZW5; [1]): below the threshold
- pKd (NHERF3_4, Q5T2W1; [1]): below the threshold
- pKd (NOS1, P29475; [1]): below the threshold
- pKd (SNTB1, Q13884; [1]): below the threshold
- pKd (TJP1_3, Q07157; [1]): below the threshold

Binder: QQSMSSADSTQA [SARS-Cov2-N, P0DTC9]
- pKd (APBA2_1, Q99767; [2]): below the threshold
- pKd (APBA2_2, Q99767; [2]): below the threshold
- pKd (ARHGEF11, O15085; [2]): below the threshold
- pKd (CASK, O14936; [2]): below the threshold
- pKd (DFNB31_1, Q9P202; [2]): below the threshold
- pKd (DLG1_3, Q12959; [2]): below the threshold
- pKd (DLG3_3, Q92796; [2]): below the threshold
- pKd (DLG4_1, P78352; [2]): below the threshold
- pKd (GIPC2, Q8TF65; [2]): below the threshold
- pKd (GORASP2, Q9H8Y8; [2]): below the threshold
- pKd (GRID2IP_1, A4D2P6; [2]): below the threshold
- pKd (GRIP1_2, Q9Y3R0; [2]): below the threshold
- pKd (GRIP1_3, Q9Y3R0; [2]): below the threshold
- pKd (GRIP1_7, Q9Y3R0; [2]): below the threshold
- pKd (IL16_4, Q14005; [2]): below the threshold
- pKd (LNX1_3, Q8TBB1; [2]): below the threshold
- pKd (LNX2_3, Q8N448; [2]): 3.88
- pKd (MAST2, Q6P0Q8; [2]): below the threshold
- pKd (MPP2, Q14168; [2]): below the threshold
- pKd (MPP6, Q9NZW5; [2]): below the threshold
- pKd (NHERF3_4, Q5T2W1; [2]): below the threshold
- pKd (NOS1, P29475; [2]): below the threshold
- pKd (SNTB1, Q13884; [2]): below the threshold
- pKd (TJP1_3, Q07157; [2]): below the threshold
